Experimental findings from FireProtDB (doi:10.1021/bi00042a027) are described below.

B1: Phosphoglycerate kinase, P00560 (parent)
chain: MSLSSKLSVQDLDLKDKRVFIRVDFNVPLDGKKITSNQRIVAALPTIKYVLEHHPRYVVLASHLGRPNGERNEKYSLAPVAKELQSLLGKDVTFLNDCVGPEVEAAVKASAPGSVILLENLRYHIEEEGSRKVDGQKVKASKEDVQKFRHELSSLADVYINDAFGTAHRAHSSMVGFDLPQRAAGFLLEKELKYFGKALENPTRPFLAILGGAKVADKIQLIDNLLDKVDSIIIGGGMAFTFKKVLENTEIGDSIFDKAGAEIVPKLMEKAKAKGVEVVLPVDFIIADAFSADANTKTVTDKEGIPAGWQGLDNGPESRKLFAATVAKAKTIVWNGPPGVFEFEKFAAGTKALLDEVVKSSAAGNTVIIGGGDTATVAKKYGVTDKISHVSTGGGASLELLEGKELPGVAFLSEKK

The variants in this series derive from B1. Conditions: Saccharomyces cerevisiae (strain ATCC 204508 / S288c), pH 7.5, 25 °C, GdnHCl, Sodium phosphate 20 mM, structure 3PGK, whole UniProt chain shown.

Several values for one entry are separate records, joined by “and”; a condition that tells them apart may be missing. Equal entries are not always repeated.

With Y123W, where the note is “CD”, the “ddG of mutation (higher = less stable)” value amounted to 1.29 kcal/mol, the denaturant m value worked out at 13.7 kcal/mol/M, the “denaturant midpoint (higher = more stable)” value (from here on “denaturant midpoint”) worked out at 0.42 M and the unfolding free energy came out at 5.79 kcal/mol. Also, for the setting “CD, transition: 3”, the “ddG of mutation (higher = less stable)” value came out at 5.65 kcal/mol, the denaturant m value was 3.2 kcal/mol/M, the “denaturant midpoint” value turned out to be 0.86 M and the unfolding free energy is 2.72 kcal/mol. In addition, under “Fluorescence, transition: 3”, the “ddG of mutation (higher = less stable)” value is 0.57 kcal/mol and 0.91 kcal/mol; the “denaturant midpoint” value is 0.4 M and 0.91 M; the unfolding free energy is 4.81 kcal/mol and 3.45 kcal/mol.
As to Y49W, for the setting “CD, transition: 3”, the “ddG of mutation (higher = less stable)” value is 1.77 kcal/mol and 4.83 kcal/mol; the “denaturant midpoint” value was 0.41 M and 1.06 M; the unfolding free energy was 4.31 kcal/mol and 3.54 kcal/mol. Further, under “Fluorescence, transition: 3”, the “denaturant midpoint” value was 0.42 M and 0.92 M; the unfolding free energy is 5.31 kcal/mol and 3.8 kcal/mol.
With F195W, for the setting “CD, transition: 3”, the “ddG of mutation (higher = less stable)” value is 0.64 kcal/mol, the denaturant m value turned out to be 10.2 kcal/mol/M, the “denaturant midpoint” value came to 0.53 M and the unfolding free energy turned out to be 5.44 kcal/mol. For the setting “Fluorescence, transition: 3”, the “denaturant midpoint” value was 0.52 M and 0.91 M; the unfolding free energy was 6.3 kcal/mol and 2.68 kcal/mol.
Regarding Y49W W309Y, for the setting “CD, transition: 3”, the “denaturant midpoint” value is 0.55 M and 0.96 M; the unfolding free energy is 5.93 kcal/mol and 2.34 kcal/mol. Also, under “Fluorescence”, the “ddG of mutation (higher = less stable)” value was -1.46 kcal/mol, the denaturant m value is 12.7 kcal/mol/M, the “denaturant midpoint” value turned out to be 0.54 M and the unfolding free energy turned out to be 6.84 kcal/mol. Besides, for the setting “Fluorescence, transition: 3”, the “ddG of mutation (higher = less stable)” value was -0.58 kcal/mol, the denaturant m value is 5.4 kcal/mol/M, the “denaturant midpoint” value worked out at 0.92 M and the unfolding free energy was 4.94 kcal/mol.
As for L400W, where the note is “CD, transition: 3”, the “ddG of mutation (higher = less stable)” value was 2.68 kcal/mol and 3.31 kcal/mol; the denaturant m value was 8.1 kcal/mol/M and 5.3 kcal/mol/M; the “denaturant midpoint” value is 0.42 M and 0.95 M; the unfolding free energy was 3.4 kcal/mol and 5.06 kcal/mol. Also, where the note is “Fluorescence”, the denaturant m value amounted to 10.7 kcal/mol/M, the “denaturant midpoint” value came to 0.39 M and the unfolding free energy came to 4.15 kcal/mol.
As for W309Y, under “CD, transition: 3”, the denaturant m value is 10.9 kcal/mol/M and 5.8 kcal/mol/M; the “denaturant midpoint” value is 0.62 M and 0.84 M; the unfolding free energy was 6.85 kcal/mol and 4.87 kcal/mol. In addition, under “Fluorescence”, the denaturant m value stood at 14.8 kcal/mol/M, the “denaturant midpoint” value came to 0.64 M and the unfolding free energy came out at 9.42 kcal/mol.
W334Y: the “denaturant midpoint” value (CD, transition: 3) is 0.63 M and 0.82 M. For the setting “Fluorescence”, the denaturant m value is 12.4 kcal/mol/M, the “denaturant midpoint” value is 0.62 M and the unfolding free energy amounted to 7.66 kcal/mol.
Y49W W334Y: where the note is “CD, transition: 3”, the “denaturant midpoint” value is 0.51 M and 0.91 M; the unfolding free energy was 7.89 kcal/mol and 3.64 kcal/mol. In addition, for the setting “Fluorescence, transition: 3”, the denaturant m value is 12.9 kcal/mol/M and 5 kcal/mol/M; the “denaturant midpoint” value is 0.53 M and 0.9 M; the unfolding free energy was 6.85 kcal/mol and 4.45 kcal/mol.
